# Assay results: patent US20120046222A1
# Biological target: GLP-1 receptor (UniProt P32301)
# Test: cell-based or functional assay
row,Substance,Cyclase GLP-1 Receptor EC50 [nM]
1,"dAla^2,Pro^3,Leu^14,Phe^25-exendin-4 (1-28) amide (from UniProt P26349) (peptide)",0.029
2,"dAla^2,Pro^3-exendin-4 amide (from UniProt P26349 48-86) (peptide)",0.004
